The text below walks through data of patent US20110217237A1 (AbbVie / Abbott, published 2011).

The target in assay [1] is T1, mouse DLL4 extracellular domain (mouse, UniProt Q9JI71 27-532).
T1 construct: extracellular domain; also called muDLL4 ECD; murine DLL4
The assay is described as follows: competition ELISA vs Notch-1. As for the experimental part:
(§1) Plates were then washed 3 times with wash buffer (PBS, 0.05% Tween-20) and blocked with 200 μl/well blocking buffer (D-PBS, 1% BSA, 1 mM CaCl₂, 0.05% Tween-20) for 1 hour at 25° C. While blocking, biotin labeled DLL4 extracellular domain (14 nM) was mixed with antibody (30 pM-66 nM, 3-fold serial dilution in blocking buffer) for 1 hour at 25° C. with shaking. Assay plates were washed after blocking, and incubated with DLL4/antibody mixtures (100 μl/well, 1 hour at 25° C. with shaking). Plates were washed again and 100 μl/well streptavidin conjugated with HRP (Fitzgerald #65R-S104PHRPx, diluted 1:5,000 in blocking buffer) was added for 1 hour at 25° C. with shaking. After a final wash, plates were developed using 100 μl/well substrate (TMB Sigma #T8665), and the reaction was stopped using 100 μl/well 1N HCl, and the absorbance was read at 450 nm. Data were analyzed using Graphpad Prism software and IC₅₀ values were reported as the concentration of antibody to achieve 50% reduction of DLL4 bound to Notch1.
(§2) Purified variants were further characterized for their affinities for human, murine and cynomolgus DLL4 by binding ELISA (Example 1.2, Method 2), by Biacore (Example 1.1), and by Flow Cytometry (FACS). […] The humanized variants were then tested for their functionality with human and murine DLL4 by competition ELISA (Example 1.3) and by Notch reporter assay (Example 1.6).
In general terms: ELISA stands for enzyme-linked immunosorbent assay.

In assay [2] the target is T2, human DLL4 extracellular domain (human, UniProt Q9NR61 27-529).
T2 construct: purified recombinant ECD; biotin-labelled or 6xHis-tagged depending on the assay; also called huDLL4 ECD; hu DLL4 ECD
T2 sequence (Q9NR61 27-529 limits assumed): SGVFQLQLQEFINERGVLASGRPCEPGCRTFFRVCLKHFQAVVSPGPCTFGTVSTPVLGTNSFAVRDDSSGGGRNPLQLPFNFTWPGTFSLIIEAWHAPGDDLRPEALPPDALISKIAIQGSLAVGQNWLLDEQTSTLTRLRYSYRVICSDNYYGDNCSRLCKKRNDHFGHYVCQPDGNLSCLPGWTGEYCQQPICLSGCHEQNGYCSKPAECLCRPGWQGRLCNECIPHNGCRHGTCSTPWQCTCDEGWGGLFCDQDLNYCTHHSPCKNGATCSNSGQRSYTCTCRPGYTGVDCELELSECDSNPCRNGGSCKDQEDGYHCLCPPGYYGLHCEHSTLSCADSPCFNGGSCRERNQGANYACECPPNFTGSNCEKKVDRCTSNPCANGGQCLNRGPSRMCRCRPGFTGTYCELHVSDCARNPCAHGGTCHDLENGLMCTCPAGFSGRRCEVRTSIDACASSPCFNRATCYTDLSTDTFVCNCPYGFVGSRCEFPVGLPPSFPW
The assay can be described thus: competition ELISA vs Notch-1. As for the experimental part:
as §1, §2

Assay [3] concerns the target T1, mouse DLL4 extracellular domain. The assay can be described thus: SPR (Biacore). As for the experimental part: (§3) The BIACORE® surface plasmon resonance assay (Biacore, Inc., Piscataway, N.J., US) determines the affinity of antibodies with kinetic measurements of on-rate and off-rate constants. Binding of DLL4 antibodies to a purified recombinant DLL4 extracellular domain (ECD) was determined by surface plasmon resonance-based measurements with a Biacore® instrument (either a Biacore 2000, Biacore 3000, or Biacore T100; GE Healthcare, Piscataway, N.J., US) using running buffer HBS-EPB (10 mM HEPES [pH 7.4], 150 mM NaCl, 3 mM EDTA, 0.1 mg/ml BSA and 0.005% surfactant P20) at 25° C. For example, approximately 9000 RU of goat anti-human Fc specific polyclonal antibody (Thermo Fisher Scientific Inc., Rockford, Ill., US) diluted in 10 mM sodium acetate (pH 4.5) is directly immobilized across a CMS research grade biosensor chip using a standard amine coupling kit according to manufacturer's instructions and procedures at 25 μg/ml. Unreacted moieties on the biosensor surface were blocked with ethanolamine. For kinetic analysis, rate equations derived from the 1:1 Langmuir binding model were fitted simultaneously to multiple antigen injections (using global fit analysis) with the use of Scrubber 2 (BioLogic Software), Biacore Biaevaluation 4.0.1 software or Biacore T100 Evaluation software. Purified antibodies were diluted in running buffer for capture across goat anti-human Fc reaction surfaces. Antibodies to be captured as a ligand (1 μg/ml) were injected over reaction matrices at a flow rate of 10 μl/min. During the assay, all measurements were referenced against the capture surface alone (i.e., with no captured anti-DLL4 antibody). […] The equilibrium dissociation constant KD (M) of the reaction between antibodies and the target antigen was then calculated from the kinetic rate constants by the following formula: KD=Koff/Kₒₙ. Binding was recorded as a function of time and kinetic rate constants were calculated.
On the technique in general: SPR reads the build-up and loss of mass on a sensor chip optically.

The target of assay [4] is T2, human DLL4 extracellular domain. The assay can be described thus: SPR (Biacore). As for the experimental part: as §3
The target of assay [5] is T3, human DLL4, full length, on cells (human, UniProt Q9NR61 27-685).
T3 construct: also called huDLL4 cells; human DLL4-293G
T3 sequence (Q9NR61 27-685 limits assumed): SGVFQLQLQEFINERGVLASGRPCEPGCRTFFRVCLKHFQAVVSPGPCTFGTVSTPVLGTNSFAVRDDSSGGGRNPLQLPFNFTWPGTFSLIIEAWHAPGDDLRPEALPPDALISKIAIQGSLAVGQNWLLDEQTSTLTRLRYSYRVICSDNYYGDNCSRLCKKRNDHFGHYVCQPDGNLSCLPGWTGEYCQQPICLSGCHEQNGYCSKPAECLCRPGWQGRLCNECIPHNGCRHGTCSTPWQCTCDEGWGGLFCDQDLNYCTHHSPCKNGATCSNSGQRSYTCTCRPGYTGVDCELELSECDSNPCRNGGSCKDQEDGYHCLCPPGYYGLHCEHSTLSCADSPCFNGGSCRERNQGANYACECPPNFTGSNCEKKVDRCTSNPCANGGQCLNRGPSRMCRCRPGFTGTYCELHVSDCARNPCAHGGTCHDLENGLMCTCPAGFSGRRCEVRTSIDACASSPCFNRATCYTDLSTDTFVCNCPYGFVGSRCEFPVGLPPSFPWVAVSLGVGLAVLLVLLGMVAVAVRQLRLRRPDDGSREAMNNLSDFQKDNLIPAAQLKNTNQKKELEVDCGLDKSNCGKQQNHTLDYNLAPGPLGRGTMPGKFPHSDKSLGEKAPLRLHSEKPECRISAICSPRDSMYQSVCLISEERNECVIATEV
The assay can be described thus: FACS, DLL4 cells. Background: In flow cytometry, cells or beads pass a laser one at a time.

The target in assay [6] is T4, mouse DLL4 on cells (mouse, UniProt Q9JI71 27-686).
T4 construct: whole, on cells; also called mouse DLL4-293G; mu DLL4 cells
T4 sequence (Q9JI71 27-686): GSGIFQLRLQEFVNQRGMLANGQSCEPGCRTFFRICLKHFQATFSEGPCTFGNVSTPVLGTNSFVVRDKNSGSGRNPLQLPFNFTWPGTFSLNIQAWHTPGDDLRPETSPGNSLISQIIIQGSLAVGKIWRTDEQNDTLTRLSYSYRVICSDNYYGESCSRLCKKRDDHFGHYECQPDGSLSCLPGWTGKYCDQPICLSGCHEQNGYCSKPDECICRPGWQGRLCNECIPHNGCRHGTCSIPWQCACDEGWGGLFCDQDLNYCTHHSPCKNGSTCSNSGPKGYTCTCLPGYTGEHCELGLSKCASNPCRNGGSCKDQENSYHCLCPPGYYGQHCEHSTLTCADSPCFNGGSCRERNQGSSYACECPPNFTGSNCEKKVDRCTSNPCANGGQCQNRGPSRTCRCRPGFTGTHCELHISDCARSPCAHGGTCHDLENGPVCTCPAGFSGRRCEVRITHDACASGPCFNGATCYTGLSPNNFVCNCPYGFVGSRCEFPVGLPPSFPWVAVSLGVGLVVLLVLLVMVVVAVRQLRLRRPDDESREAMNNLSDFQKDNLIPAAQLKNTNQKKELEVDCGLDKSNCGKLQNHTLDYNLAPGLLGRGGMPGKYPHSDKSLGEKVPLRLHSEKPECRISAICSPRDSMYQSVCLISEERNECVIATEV
The assay can be described thus: FACS, DLL4 cells.

The target of assay [7] is T3, human DLL4, full length, on cells. The assay can be described thus: cell-based or functional assay.
Assay [8] addresses T5, cynomolgus monkey DLL4 extracellular domain (cynomolgus monkey).
T5 construct: extracellular domain; also called cynoDLL4 ECD; Cyno DLL4
The assay can be described thus: binding ELISA. How it is done:
(§4) Plates were then washed 3 times. 100 μl/well of recombinant rat/human chimeric or recombinant human anti-DLL4 antibodies were then added to the plate (0.00164-27 nM, 4-fold serial dilution in ELISA buffer=PBST, 10% Superblock (Pierce #37515)) for 1 hour at 25° C. with shaking and then washed again 3 times. Plates were incubated with goat anti-human HRP (Pierce #31412) (1:40,000 dilution in ELISA buffer, 100 μl/well) for 1 hour at 25° C. with shaking, then washed 3 times. After the final wash, plates were incubated with 100 μl/well ELISA substrate (Sigma #T8665). The reaction was stopped after 8 minutes at 25° C. with 100 μl/well 1N HCl and the absorbance was read at 450 nm. Data were analyzed using Graphpad Prism software, and EC50 values were reported.
as §2

The target of assay [9] is T1, mouse DLL4 extracellular domain. The assay is described as follows: binding ELISA. As for the experimental part:
as §4, §2

For assay [10], the target named is T2, human DLL4 extracellular domain. The assay can be described thus: binding ELISA. How it is done: as §4, §2

T1 sequence (Q9JI71 27-532): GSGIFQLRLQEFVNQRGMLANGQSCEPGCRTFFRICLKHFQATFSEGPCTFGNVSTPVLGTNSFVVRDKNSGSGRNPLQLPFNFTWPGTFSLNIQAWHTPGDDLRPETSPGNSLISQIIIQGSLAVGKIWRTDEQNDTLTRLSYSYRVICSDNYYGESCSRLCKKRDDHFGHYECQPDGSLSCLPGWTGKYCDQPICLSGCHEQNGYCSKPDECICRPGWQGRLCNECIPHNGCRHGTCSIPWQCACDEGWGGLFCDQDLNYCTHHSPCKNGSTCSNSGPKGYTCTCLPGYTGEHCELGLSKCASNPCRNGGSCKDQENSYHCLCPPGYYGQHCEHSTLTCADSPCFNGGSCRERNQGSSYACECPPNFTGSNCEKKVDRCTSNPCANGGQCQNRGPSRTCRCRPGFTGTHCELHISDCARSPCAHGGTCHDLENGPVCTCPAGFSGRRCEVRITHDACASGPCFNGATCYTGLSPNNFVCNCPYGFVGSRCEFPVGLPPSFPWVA

B1: h1A11.2 (antibody, V domains shown)
VH: EVQLVESGGGLVQPGGSLRLSCAASGFTFSNFPMAWVRQAPGKGLEWVATISSSDGTTYYRDSVKGRFTISRDNAKNSLYLQMNSLRAEDTAVYYCARGYYNSPFAYWGQGTLVTVSS
VL: DIQMTQSPSSLSASVGDRVTITCRASEDIYSNLAWYQQKPGKSPKLLIFDTNNLADGVPSRFSGSGSGTDSTLTISSLQPEDFATYFCQQYNNYPPTFGQGTKLEIKR
notes: humanized IgG; also called VH.1/VL.1a 1A11
In general, IC50 refers to the concentration that inhibits the measured activity by half. The term Kd denotes the free concentration of one partner at which half of the binding sites on the other are occupied at equilibrium, for simple one-to-one binding. As usually defined, the EC50 is the midpoint of the concentration-response curve. For the molecule B1, the figures for the IC50 in assay [1] and in assay [2] were 0.9 nM and 0.3 nM, respectively. The dissociation constant (Kd) in assay [3] stood at 19 nM; in assay [4], 10 nM. In addition, the concentration for a half-maximal effect (EC50) in [5] is 2.85 nM; in assay [6], 0.21 nM; in [8], 0.13 nM; in assay [9], 0.09 nM; in [10], 0.08 nM. Besides, the “Reporter Assay (EC50, nM)” value in assay [7] was found to be 3.92 nM.

B2: h1A11.3 (antibody, V domains shown)
VH: EVQLVESGGGLVQPGGSLRLSCAASGFTFSNFPMAWVRQAPGKGLEWVATISSSDGTTYYRDSVKGRFTISRDNAKNSLYLQMNSLRAEDTAVYYCARGYYNSPFAYWGQGTLVTVSS
VL: DIQMTQSPSSLSASVGDRVTITCRASEDIYSNLAWYQQKPGKAPKLLIFDTNNLADGVPSRFSGSGSGTDFTLTISSLQPEDFATYYCQQYNNYPPTFGQGTKLEIKR
notes: humanized IgG; also called VH.1/VL.1b 1A11
In the case of B2, the IC50 in assay [1] came to 0.9 nM; in assay [2], 0.2 nM. Further, the Kd was determined as 37 nM in [3] and 15 nM in [4]. In addition, the EC50 stood at 3.51 nM in [5]; 0.24 nM in assay [6]; 0.16 nM in assay [8]; 0.08 nM in [9]; 0.07 nM in [10]. In addition, the “Reporter Assay (EC50, nM)” value in assay [7] was determined as 2.53 nM.

B3: h1A11.4 (antibody, V domains shown)
VH: EVQLVESGGGLVQPGGSLRLSCAASGFTFSNFPMAWVRQAPGKGLEWVATISSSDGTTYYRDSVKGRFTISRDNAKNSLYLQMNSLRAEDTAVYYCARGYYNSPFAYWGQGTLVTVSS
VL: EIVMTQSPATLSVSPGERATLSCRASEDIYSNLAWYQQKPGQSPRLLIFDTNNLADGVPARFSGSGSGTESTLTISSLQSEDFAVYFCQQYNNYPPTFGQGTKLEIKR
notes: humanized IgG; also called VH.1/VL.2a 1A11
For B3, the IC50 in assay [1] was 0.9 nM; in [2] it was 0.3 nM. The Kd stood at 39 nM in [3] and 16 nM in [4]. Also, the EC50 is 3.61 nM in assay [5]; 0.22 nM in [6]; 0.17 nM in assay [8]; 0.09 nM in assay [9]; 0.08 nM in assay [10]. In addition, the “Reporter Assay (EC50, nM)” value in assay [7] was 3.28 nM.

B4: h1A11.5 (antibody, V domains shown)
VH: EVQLVESGGGLVQPGGSLRLSCAASGFTFSNFPMAWVRQAPGKGLEWVATISSSDGTTYYRDSVKGRFTISRDNAKSSLYLQMNSLRAEDTAVYYCSRGYYNSPFAYWGQGTLVTVSS
VL: DIQMTQSPSSLSASVGDRVTITCRASEDIYSNLAWYQQKPGKAPKLLIYDTNNLADGVPSRFSGSGSGTDFTLTISSLQPEDFATYYCQQYNNYPPTFGQGTKLEIKR
notes: humanized IgG; also called VH.1a/VL.1 1A11
Consider B4, for which the IC50 in assay [1] came out at 0.8 nM; in assay [2], 0.3 nM. Further, the Kd in assay [3] turned out to be 22 nM; in [4] it was 9.6 nM. Further, the EC50 in [5] was determined as 3.61 nM; in [6] it was 0.21 nM; in assay [8], 0.16 nM; in assay [9], 0.08 nM; in assay [10], 0.07 nM. Moreover, in assay [7], the “Reporter Assay (EC50, nM)” value was found to be 3.8 nM.

B5: h1A11.9 (antibody, V domains shown)
VH: EVQLVESGGGLVQPGGSLRLSCAASGFTFSNFPMAWVRQAPGKGLEWVATISSSDGTTYYRDSVKGRFTISRDNAKNSLYLQMNSLRAEDTAVYYCSRGYYNSPFAYWGQGTLVTVSS
VL: DIQMTQSPSSLSASVGDRVTITCRASEDIYSNLAWYQQKPGKAPKLLIYDTNNLADGVPSRFSGSGSGTDFTLTISSLQPEDFATYYCQQYNNYPPTFGQGTKLEIKR
notes: humanized IgG; also called VH.1b/VL.1 1A11
As to B5, the half-inhibitory concentration (IC50) amounted to 0.9 nM in assay [1] and 0.3 nM in assay [2]. The Kd in [3] is 34 nM; in assay [4], 13 nM. Also, the EC50 in assay [5] was 3.28 nM; in assay [6], 0.18 nM; in [8], 0.15 nM; in assay [9], 0.09 nM; in assay [10] it was 0.07 nM. In assay [7], the “Reporter Assay (EC50, nM)” value is 3.18 nM.

B6: h1A11.7 (antibody, V domains shown)
VH: EVQLVESGGGLVQPGGSLRLSCAASGFTFSNFPMAWVRQAPGKGLEWVATISSSDGTTYYRDSVKGRFTISRDNAKSSLYLQMNSLRAEDTAVYYCSRGYYNSPFAYWGQGTLVTVSS
VL: DIQMTQSPSSLSASVGDRVTITCRASEDIYSNLAWYQQKPGKAPKLLIFDTNNLADGVPSRFSGSGSGTDFTLTISSLQPEDFATYYCQQYNNYPPTFGQGTKLEIKR
notes: humanized IgG; also called VH.1a/VL.1b 1A11
With B6, the IC50 stood at 0.9 nM in assay [1] and 0.5 nM in assay [2]. Besides, the figures for the Kd in assay [3] and in assay [4] were 35 nM and 13 nM, respectively. Also, the EC50 in assay [5] came out at 3.71 nM; in assay [6], 0.18 nM; in [8], 0.14 nM; in [9] it was 0.09 nM; in assay [10] it was 0.06 nM. The “Reporter Assay (EC50, nM)” value in [7] was 4.84 nM.

B7: h1A11.6 (antibody, V domains shown)
VH: EVQLVESGGGLVQPGGSLRLSCAASGFTFSNFPMAWVRQAPGKGLEWVATISSSDGTTYYRDSVKGRFTISRDNAKSSLYLQMNSLRAEDTAVYYCSRGYYNSPFAYWGQGTLVTVSS
VL: DIQMTQSPSSLSASVGDRVTITCRASEDIYSNLAWYQQKPGKSPKLLIFDTNNLADGVPSRFSGSGSGTDSTLTISSLQPEDFATYFCQQYNNYPPTFGQGTKLEIKR
notes: humanized IgG; also called VH.1a/VL.1a 1A11
Regarding B7, the values for the IC50 in [1] and in assay [2] were 0.8 nM and 0.4 nM, respectively. In addition, the Kd stood at 31 nM in [3] and 11.3 nM in assay [4]. The EC50 turned out to be 3.74 nM in assay [5]; 0.15 nM in assay [6]; 0.13 nM in assay [8]; 0.1 nM in assay [9]; 0.08 nM in assay [10]. The “Reporter Assay (EC50, nM)” value in assay [7] was found to be 1.45 nM.
